Test system: Huh7 cells
Assay: EPO expression (ELISA of medium) from PB1-MinTK in Huh7 cells with CAR-containing plasmid, induction by CITCO
Format: cell-based, human
Excerpt: • Huh7 cells which are a human liver cell line • DPBS: without CaCl2, without MgCl2 (Gibco, 14190-094) • DMEM (Sigma, D6546) • FBS (Sigma, F9665) • Pen-Strep (Sigma, P4333) • Promega Fugene-HD (E2311) • TCPOBOP (Sigma, T2320) • CITCO (Cayman Chemicals Company, 16027) • pcDNA6 plasmid which contains the β-galactosidase gene used as internal control for transfection efficiency (Thermofisher, V22020) • mouse CAR expression plasmid from Jouan et al, 2016 (BioCat GmbH, EX-Z4288-M51-10-GC). This was used as Huh7 is CAR deficient. • β-galactosidase substrate solution (Thermofisher, 75707/75710) • Pierce BCA kit (23225) • LARII (Dual Luciferase Reporter 1000 assay system, Promega, E1980) • EPO ELISA kit (Abcam, ab119522) Method: Day 1 • Cells were seeded onto a 48 well plate at a density of 25,000 cells/300 μl Day 2 • On the day of transfection, DNA to be transfected (CAR plasmid/PB1-MinTK operably linked with luciferase or EPO/pcDNA6 plasmid for internal control) was diluted to a 100 ng/μl stock solution. Per 48 Well Transfection: • 45 ng of DNA (15 ng of each plasmid, pcDNA6, CAR and test plasmid) was mixed with 4.1 μl of Optimem medium. • 0.5 μl of Fusion HD was mixed with 4 μl of Optimem medium. • These 2 solutions were mixed and incubated at room temperature for 15 minutes. • The final solution was then added to the well drop wise. • 3 hrs after transfection, the inducer TCPOBOP was added to the appropriate wells at the indicated concentration. Day 3 • 24 hrs after induction the media was removed from the cells. • The cells were washed once in 300 μl of DPBS • Cells were lysed using 100 μl of passive lysis buffer and incubation with rocking for 15 minutes • The cell debris was pelleted by centrifugation of the plate at max speed in a benchtop centrifuge for 1 min • For luciferase, 10 μl sample was transferred into white 96-well plate and luminescence measured by injection of 50 μl of LARII substrate. • β-galactosidase activity was measured as per manufacturer's instructions (Mammalian β-Galactosidase Assay Kit, 75707/75710, Thermo Scientific) using 25 μl of lysate. 25 μl of lysate was transferred into a microplate well and mixed with 25 μl of β-galactosidase Assay Reagent, equilibrated to room temperature. The mixture was incubated at 37° C. for 30 min and absorbance measured at 405 nm. • Protein concentration was measured as per manufacturer's instructions (Pierce™ BCA Protein Assay Kit, 23225/23227, Thermo Scientific) using 25 μl of lysate. 25 μl of lysate was transferred into a microplate well and mixed with 200 μl of working solution. The mixture was incubated at 37° C. for 30 min, cooled to room temperature and then absorbance measured around 562 nm. The protein concentration was calculated with respect to protein standard curve prepared from assaying standards with known protein concentration.
Transfections with PB1-MinTk-EPO were performed as described above with the exception that EPO is secreted into the medium. Therefore, medium was collected, and EPO concentration measured as per manufacturer's instructions (ab119522 Erythropoietin (EPO) Human ELISA Kit, Abcam) using an ELISA assay. 50 μl of medium was transferred to a pre-washed microplate wells and mixed with 50 μl of 1× Biotin Conjugated Antibody. The mixture was incubated at room temperature for 1 hour. The wells were washed, 100 μl of Streptavadin-HRP was added and the plate was incubated at room temperature for 15 minutes. The wells were washed and then 100 μl of TMB Substrate Solution. The mixture was incubated at room temperature for 10 minutes. The enzyme reaction was stopped by addition of 100 μl of Stop Solution and absorbance was read at 450 nm. The EPO concentration was calculated with respect to EPO standard curve prepared from assaying standards with known EPO concentration.
The PB1-MinkTK promoter was then used to drive expression of the protein EPO, which is of therapeutic interest. […]

B1: PB1-MinTK: promoter: single mouse PBREM element and MinTK minimal promoter, SEQ ID NO: 7 (nucleic acid)
DNA: TCTGTACTTTCCTGACCTTGGCACAGTGCCACCATCAACTTGCCTGACACCGATCCGGCCCCGCCCAGCGTCTTGTCATTGGCGAATTCGAACACGCAGATGCAGTCGGGGCGGCGCGGTCCGAGGTCCACTTCGCATATTAAGGTGACGCGTGTGGCCTCGAACACCGAGCGACCCTGCAGCGACCCGCTTAACAGCGTCAACAGCGTGCCGCAGATCTCGAGGAGCTTGGCGAGATTTTCAGGAGCTAAGGAAGCTAAAC
modifications: PB1-MinTK
CITCO induced (data not shown)
  overall EPO expression level relative to CMV-IE: around 22%
Addition of up to 2 μM CITCO
  EPO production: marked increase in the production of EPO
Highest concentration of CITCO (3 μM)
  EPO expression: returns towards baseline activity
No addition of the drug (DMSO)
  EPO expression: very little expression of EPO
